Usually Kd stands for the free concentration of one partner at which half of the binding sites on the other are occupied at equilibrium, for simple one-to-one binding. High values mean a looser complex, low ones a tighter complex.

What all share (experiment): filter binding
Data set [1] deals with T1, RBM15 RRM23 (UniProt Q96T37 374-529).
T1 sequence: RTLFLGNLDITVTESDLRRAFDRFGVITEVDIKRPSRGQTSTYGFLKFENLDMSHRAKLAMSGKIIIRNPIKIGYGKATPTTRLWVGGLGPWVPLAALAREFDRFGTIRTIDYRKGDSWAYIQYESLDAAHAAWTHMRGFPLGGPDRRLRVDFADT

In data set [2] the target is T2, RBM15 RRM3 (UniProt Q96T37 455-529).
T2 sequence: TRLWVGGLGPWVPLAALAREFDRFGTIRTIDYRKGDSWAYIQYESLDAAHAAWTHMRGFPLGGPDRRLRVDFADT

Data set [3] addresses T3, RBM15 RRM12 (UniProt Q96T37 170-451).
T3 sequence: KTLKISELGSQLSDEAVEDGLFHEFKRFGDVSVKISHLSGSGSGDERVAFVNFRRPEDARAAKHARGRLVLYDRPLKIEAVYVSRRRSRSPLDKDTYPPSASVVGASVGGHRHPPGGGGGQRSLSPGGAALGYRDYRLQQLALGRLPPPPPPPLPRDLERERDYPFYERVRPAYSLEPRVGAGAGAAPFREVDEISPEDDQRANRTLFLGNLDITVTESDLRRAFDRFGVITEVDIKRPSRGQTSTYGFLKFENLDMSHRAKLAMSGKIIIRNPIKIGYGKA

Data set [4] addresses T4, RBM15 RRM1 (UniProt Q96T37 170-252).
T4 sequence: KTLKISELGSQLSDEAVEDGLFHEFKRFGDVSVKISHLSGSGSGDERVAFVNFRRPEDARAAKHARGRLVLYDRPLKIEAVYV

Data set [5] deals with T5, RBM15 RRM123 (UniProt Q96T37 170-529).
T5 sequence: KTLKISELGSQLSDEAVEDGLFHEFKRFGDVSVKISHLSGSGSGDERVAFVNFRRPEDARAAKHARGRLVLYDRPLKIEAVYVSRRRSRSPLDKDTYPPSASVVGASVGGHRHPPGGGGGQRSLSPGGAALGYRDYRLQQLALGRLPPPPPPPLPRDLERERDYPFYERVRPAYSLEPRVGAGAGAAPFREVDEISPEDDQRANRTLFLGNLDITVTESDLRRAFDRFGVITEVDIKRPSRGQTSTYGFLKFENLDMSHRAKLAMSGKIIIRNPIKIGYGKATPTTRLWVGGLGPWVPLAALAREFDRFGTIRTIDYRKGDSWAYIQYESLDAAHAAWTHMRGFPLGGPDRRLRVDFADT

In the case of GGCCAACACUCUGGCCCAUCGGGGUGACGGCC (structured_RNA) [XIST A-repeat stem-loop (32nt)], the Kd is 50 nM in data set [1]; around 100 nM in data set [2]; 71 nM in data set [3]; 433 nM in data set [4]; 79 nM in data set [5].

On to GGUUCUUGAAAAGAGGACC (structured_RNA) [FIRRE RRD stem-loop (19nt)], for which the Kd in data set [1] is 99 nM; in data set [2], around 100 nM; in data set [3], 184 nM; in data set [4] it was 370 nM; in data set [5] it was around 100 nM.

(Values after publication doi:10.1101/2023.07.20.549950.)
